Experimental data as given in article PMC6076278.

Key:
[1] = molecular target: Glutamine synthetase from Helicobacter pylori (Helicobacter pylori) (UniProt P94845); assay: crystal structure; Hpy GS mixed with 5 mM ATP, 5 mM PPT, 5 mM magnesium chloride; crystals in 2.0 M sodium formate, 100 mM sodium citrate pH 5.0; 2.9 Å; twelve subunits in the asymmetric unit
[2] = molecular target: Glutamine synthetase from Helicobacter pylori (Helicobacter pylori) (UniProt P94845); assay: crystal structure; apo Hpy GS; crystals in 10% (v/v) PEG 6,000, 100 mM HEPES pH 7.0, 50 mM choline; 2.8 Å; hexamer in the asymmetric unit, dodecamer generated by two-fold symmetry

“Glutamine synthetase from Helicobacter pylori (from UniProt P94845 1-481) (enzyme)” showed a stoichiometry N [1] of 12 and a stoichiometry N [2] of 12.
